Source: publication PMC6499931

B1: BMS-986012, nonfucosylated fully human IgG1 anti-fucosyl-GM1 antibody (antibody, V domains shown)
VH: EVQLVESGGGSVQPGESLRLSCVASGFTFSRYKMNWVRQAPGKGLEWVSYISRSGRDIYYADSVKGRFTISRDNAKNSLYLQMNSLRDEDTAVYYCAGTVTTYYYDFGMDVWGQGTTVTVSS
VL: DIQMTQSPSSLSASVGDRVTITCRASQGISSWLAWYQQKPEKAPKSLIYAASSLQSGVPSRFSGSGSGTDFTLTISSLQPEDFATYYCQQYNSYPPTFGGGTKVEIK
B2: 7E4, fucosylated parental anti-fucosyl-GM1 antibody in conventional fucosylated IgG1 format (antibody, V domains shown)
VH: B1 VH
VL: B1 VL

Columns and labels:
[1] = biological target: human FcγRIIIa stably expressed on CHO cells (human) (UniProt P08637); assay: flow cytometry on cells
UniProt P08637, sequence (P08637 17-254): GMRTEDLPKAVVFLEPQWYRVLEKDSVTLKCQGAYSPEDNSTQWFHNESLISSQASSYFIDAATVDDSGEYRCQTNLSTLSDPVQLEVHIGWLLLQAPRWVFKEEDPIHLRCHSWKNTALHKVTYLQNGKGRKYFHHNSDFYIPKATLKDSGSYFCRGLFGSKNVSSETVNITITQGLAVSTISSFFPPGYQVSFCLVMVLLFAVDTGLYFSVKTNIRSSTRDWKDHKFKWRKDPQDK

[2] = biological target: human FcγRIIIa stably expressed on CHO cells (human) (UniProt P08637)

Row | Binder | EC50 [1] | NK cell-mediated ADCC against the FucGM1+ SCLC cell line DMS79, EC50 [2]
1 | B1 | 3.5 nM | 0.06 nM
2 | B2 | 138 nM | 8 nM
